Assay results reported in article PMC7954794, “Protein context shapes the specificity of SH3 domain-mediated interactions in vivo” (Nature Communications, 2021).

Test system: PPIs identified as affected by the SH3 domain deletions
Assay: Liquid DHFR-PCA low-throughput validation of PPIs affected by SH3 deletion (Fig. S1D-E)
Format: cell-based, Saccharomyces cerevisiae
Conditions: label = prey, liquid DHFR-PCA, prey _1 = lost, _2 = gained in screen
Summary of the method: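 Growth at 30 °C was tracked by OD each 15 min over 72 h in agar-free PCA selection medium, starting at 0.1 OD. Cells were diploids selected after mating, first cultured 48 h with NAT and HPH in synthetic complete MSG medium, pH 6.0.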

B1: YLR332W_1 (protein, UniProt P36027 26-376, looked up)
Cell wall integrity sensor …: QFFVQSSSSNSSAVSTARSSVSRVSSSSSILSSSMVSSSSADSSSLTSSTSSRSLVSHTSSSTSIASISFTSFSFSSDSSTSSSSSASSDSSSSSSFSISSTSATSESSTSSTQTSTSSSSSLSSTPSSSSSPSTITSAPSTSSTPSTTAYNQGSTITSIINGKTILSNHYTTVTYTPSATADSSNKSKSSGLSKKNRNIVIGCVVGIGVPLILVILALIYMFCIQSSRTDFIDSDGKVVTAYRANKFTKWWYMLLGKKVSDEYHSDSPLGGSASSAGGLDLDEADDVMEQSSLFDVRIRDSDSVLPNANTADHNNTNSGGEPINSSVASNDIIEEKFYDEQGNELSPRNY
Ratio (Deletedscore / WTscore) (bait CDC25): 0.4625 | Ratio (Deletedscore / WTscore) (bait NBP2): 0.9277

B2: YHR016C_1 (protein, UniProt P32793 1-468, looked up)
Protein YSC84: MGINNPIPRSLKSETKKAAKVLRSFVKPNQVFGADQVIPPYVLKRAKGLAIITVLKAGFLFSGRAGSGVIVARLKDGTWSAPSAIAMAGAGAGGMVGVELTDFVFILNSEEAVRSFSEFGTITLGGNVSVSAGPLGRSAEAAASASTGGVSAVFAYSKSKGLFAGVSVEGSAILERREANRKFYGDNCTSKMILSGRVKVPPAADPLLRILESRAFNFTRHDHDDNASGDDFYDDGQYSDNTSHYYDDIPDSFDSTDESSTRPNTRSSRRRGMSLGSRSRYDDDYDDDGYGRGRGYGDFDSEDEDYDYGRSPNRNSSRNRGPQIDRGTKPRANTRWEDDLYDRDTEYSRPNHSGRDYDNTRGNRRGYGRERGYSLGHGPTHPSNMSNVDDLSHKMSKTGLGNESTATNSATPTAVALYNFAGEQPGDLAFKKGDVITILKKSDSQNDWWTGRTNGKEGIFPANYVRVS
Ratio (Deletedscore / WTscore) (bait HOF1): 0.9486 | Ratio (Deletedscore / WTscore) (bait MYO5): 0.6586 | Ratio (Deletedscore / WTscore) (bait RVS167): 0.5834

B3: YLR258W_2 (protein, UniProt P27472 1-705, looked up)
Glycogen [starch] synthase …: MSRDLQNHLLFETATEVANRVGGIYSVLKSKAPITVAQYKDHYHLIGPLNKATYQNEVDILDWKKPEAFSDEMRPVQHALQTMESRGVHFVYGRWLIEGAPKVILFDLDSVRGYSNEWKGDLWSLVGIPSPENDFETNDAILLGYTVAWFLGEVAHLDSQHAIVAHFHEWLAGVALPLCRKRRIDVVTIFTTHATLLGRYLCASGSFDFYNCLESVDVDHEAGRFGIYHRYCIERAAAHSADVFTTVSQITAFEAEHLLKRKPDGILPNGLNVIKFQAFHEFQNLHALKKEKINDFVRGHFHGCFDFDLDNTLYFFIAGRYEYKNKGADMFIEALARLNYRLKVSGSKKTVVAFIVMPAKNNSFTVEALKGQAEVRALENTVHEVTTSIGKRIFDHAIRYPHNGLTTELPTDLGELLKSSDKVMLKRRILALRRPEGQLPPIVTHNMVDDANDLILNKIRQVQLFNSPSDRVKMIFHPEFLNANNPILGLDYDEFVRGCHLGVFPSYYEPWGYTPAECTVMGVPSITTNVSGFGAYMEDLIETNQAKDYGIYIVDRRFKAPDESVEQLVDYMEEFVKKTRRQRINQRNRTERLSDLLDWKRMGLEYVKARQLALRRGYPDQFRELVGEELNDSNMDALAGGKKLKVARPLSVPGSPRDLRSNSTVYMTPGDLGTLQEVNNADDYFSLGVNPAADDDDDGPYADDS
Ratio (Deletedscore / WTscore) (bait ABP1): 1.221

B4: YNL084C_1 (protein, UniProt P39013 1-349, looked up)
Actin cytoskeleton-regulatory …: MPKLEQFEIKKYWQIFSGLKPIENKVNHDQVLPILYNSKLDSSVLNKIWFLADIDDDDNLDFEEFVICMRLIFDMVNKNISSVPDELPDWLIPGSKVNLIKERKKRKQIENADLPPKKEIKVDWYMSPDDLNQYEKIYNSCAKLTDGTITFNELSTKLSTKFFNISKTDLNKVWSLINPQNLPSIDRDPTFYFIHCLRQRNDLGAEIPASLPNSLAEVCNKKQLSYDLRSSQPPTKRKEEANEVDNLRDNGQNSSSDSSGSNVLSNEDSIKQKYASLTDDQVANMREQLEGLLNYKKSEKTQGGSKLSKRINIRSITDDLDNIEQQVEVLENYLNNKRHELQALQAEIN
Ratio (Deletedscore / WTscore) (bait LSB1): 0.7759 | Ratio (Deletedscore / WTscore) (bait LSB3): 0.8689 | Ratio (Deletedscore / WTscore) (bait MYO3): 0.5035 | Ratio (Deletedscore / WTscore) (bait MYO5): 0.7027

B5: YDL146W_1 (protein, UniProt Q12342 1-491, looked up)
Protein LDB17: MILDPLSPNIENHTQDEIIEFWEKTESIANIPKENLDESHVNSSLVAYLKFATDSYKVFINTDRDLYRMSLILLESSLFEFKKEFCLSKLQSLLNIDLLEMNMKFIIVYILLCEAKKNVYSLEIMLKFQGFTVFYNTLYTQFAYLSKYGKERTVASKHQYNSNNSSTGTSLDSLDRSLTDIDLGIIDEMKQISTVLMDLLFQIMKYCKCVIANLQIVDDFFVYYMMESMRSDTMDDMFNNAEFKLLLALNEQYMMFAKEYDIENKVYKYLINGSVSRCFTELLLLKFNRASDPPLQIMMCKIIYLILTPRGDYSPMNFFYTNDLRVLIDVLIRELQNISEDEEVLRNTLLRVLIPLLKNTQLSKTHYRKDDLNKLLNYLSTLDNICVDSPALHEHQVTVALSRKCLQQIPWLETPSTPSDGGSSVSSNNTSRNSSIVALGTPDNQNILARKGHLYSNRELDVSAESLTKRKAKAPPPPPPPPPSRKCGTPK
Ratio (Deletedscore / WTscore) (bait BZZ1-1): 0.5572 | Ratio (Deletedscore / WTscore) (bait BZZ1-2): 0.7122 | Ratio (Deletedscore / WTscore) (bait LSB3): 0.6902

B6: YKL129C_1 (protein, UniProt P36006 1-1272, looked up)
Myosin-3: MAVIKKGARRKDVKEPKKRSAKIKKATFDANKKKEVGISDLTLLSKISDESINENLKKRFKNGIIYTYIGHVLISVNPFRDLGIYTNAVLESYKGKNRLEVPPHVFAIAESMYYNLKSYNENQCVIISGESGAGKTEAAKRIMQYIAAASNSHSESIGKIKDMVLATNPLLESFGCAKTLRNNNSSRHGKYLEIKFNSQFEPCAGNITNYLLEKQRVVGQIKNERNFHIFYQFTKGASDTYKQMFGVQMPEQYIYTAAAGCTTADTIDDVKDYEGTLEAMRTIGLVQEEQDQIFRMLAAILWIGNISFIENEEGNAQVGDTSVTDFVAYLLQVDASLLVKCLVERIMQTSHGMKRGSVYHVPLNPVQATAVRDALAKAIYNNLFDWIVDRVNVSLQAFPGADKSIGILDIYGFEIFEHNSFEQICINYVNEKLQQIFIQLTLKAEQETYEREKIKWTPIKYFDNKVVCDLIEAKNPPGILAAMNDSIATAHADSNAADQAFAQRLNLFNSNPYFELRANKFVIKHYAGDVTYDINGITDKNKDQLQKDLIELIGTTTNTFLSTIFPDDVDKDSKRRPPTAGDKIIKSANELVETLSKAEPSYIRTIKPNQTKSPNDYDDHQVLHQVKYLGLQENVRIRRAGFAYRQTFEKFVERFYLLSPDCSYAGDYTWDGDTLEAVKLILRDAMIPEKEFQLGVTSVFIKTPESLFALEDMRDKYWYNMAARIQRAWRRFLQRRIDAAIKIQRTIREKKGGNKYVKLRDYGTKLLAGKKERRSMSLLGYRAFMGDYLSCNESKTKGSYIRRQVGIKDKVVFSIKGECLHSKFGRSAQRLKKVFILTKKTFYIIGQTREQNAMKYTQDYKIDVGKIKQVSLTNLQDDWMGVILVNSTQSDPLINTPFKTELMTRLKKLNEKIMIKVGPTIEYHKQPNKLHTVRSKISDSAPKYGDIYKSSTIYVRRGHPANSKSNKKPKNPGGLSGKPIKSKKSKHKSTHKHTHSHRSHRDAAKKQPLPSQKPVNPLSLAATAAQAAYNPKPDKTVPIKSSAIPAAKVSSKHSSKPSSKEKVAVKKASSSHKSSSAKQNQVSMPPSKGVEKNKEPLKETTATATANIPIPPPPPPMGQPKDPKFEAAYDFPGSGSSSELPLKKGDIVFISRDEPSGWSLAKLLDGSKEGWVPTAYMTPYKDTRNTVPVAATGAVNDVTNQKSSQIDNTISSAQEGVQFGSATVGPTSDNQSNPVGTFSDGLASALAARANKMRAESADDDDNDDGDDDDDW
Ratio (Deletedscore / WTscore) (bait BZZ1-1): 0.69 | Ratio (Deletedscore / WTscore) (bait PIN3): 0.7986

B7: YLR144C_1 (protein, UniProt Q12168 1-779, looked up)
Glucan …: MCYSRQAIPPPVPNRPGGTTNRGPPPLPPRANVQPPVCSSENSSKPRENRVAGESLRTPSSSNPLADSQVNSDNIFQSPVLSNLKAPPSVFNKVQHPVPKPNIDDQSVDPLETNKFYTNMLLDDNTQPIWTHPYSIWFSRDPELFGLAANHTLASQRVFDTTTNPPRFYFNPTNIKSFVFKAREFVSSNDIKLEFRDMKHMSMCLLMSLSSSQFIEFPLVQGMGFVTAIYHDLGFELRSAVGFRSLERISVNERYGKYNIQLENNRNWILYLTSPDYSFPQDFQISLLDSNTIISSHKINGLICQLSADSVPSIDMAAGCYPVYCDLSGQTVDEHFTNYRFNYTVAGYSQSGTTLMYALPHHKAAFTPEMQEREIASSLDSTVKGLMTGYLTNSFDMQVQVPQELGFEPVALSLNKKADYSQEKLSKIREAAVQEVQLSDPQQESNIDSMYFSGKILAKYAWILYVTHYILHDENLTKELLSKLTIAMERFISNQQVLPLNYDVSWKGIISSGSSSQDFGNSYYNDHHFHYSYHVITAAIISLVDSDLSGVTNNSWLENNRDWVECLIRDYSGVDNDDPYFPQFRSFDWFNGHSWAKGLFPSGDGKDEESTSEDVNSCYAIKLWGLVTGNSKLTDIANLQLGIMRNVFQSYFLYESNNTVQPKEFIGNKVSGILFENKIDHATYFGMEPQYIHMIHAIPITSASSWVRTPNFVKEEWEEKMQPIIDQVNDGWKGIIMLNMALLDPKFSYDFFSQPDFNRNFLDNGQSLTWSLAYSGAFS
Ratio (Deletedscore / WTscore) (bait LSB1): 1.001 | Ratio (Deletedscore / WTscore) (bait LSB3): 0.9902 | Ratio (Deletedscore / WTscore) (bait PIN3): 0.9919

B8: YCR009C_1 (protein, UniProt P25343 1-265, looked up)
Reduced viability upon …: MSWEGFKKAINRAGHSVIIKNVDKTIDKEYDMEERRYKVLQRAGEALQKEAKGFLDSLRAVTASQTTIAEVISNLYDDSKYVAGGGYNVGNYYLQCVQDFDSETVKQLDGPLRETVLDPITKFSTYFKEIEEAIKKRDHKKQDFDAAKAKVRRLVDKPAKDASKLPRAEKELSLAKDIFENLNNQLKTELPQLVSLRVPYFDPSFEALIKIQLRFCTDGYTRLAQIQQYLDQQSRDDYANGLLDTKIEELLGQMTSLDICALGIK
Ratio (Deletedscore / WTscore) (bait LSB1): 0.9386 | Ratio (Deletedscore / WTscore) (bait LSB3): 0.7612 | Ratio (Deletedscore / WTscore) (bait MYO3): 0.6894 | Ratio (Deletedscore / WTscore) (bait MYO5): 0.8072

B9: YGR037C_1 (protein, UniProt P31787 1-87, looked up)
Acyl-CoA-binding protein: MVSQLFEEKAKAVNELPTKPSTDELLELYALYKQATVGDNDKEKPGIFNMKDRYKWEAWENLKGKSQEDAEKEYIALVDQLIAKYSS
Ratio (Deletedscore / WTscore) (bait LSB1): 1.041
